Data reported in PMC4015666 (Journal of Diabetes Investigation, 2013).

What was measured:
[1] = 0.025‐U/kg dose; cited from earlier work
[2] = Hypoglycemia monitoring after insulin lispro injection; format: in vivo, healthy Japanese adult males; conditions: 1.5 or 2.0 U s.c. abdomen, 12 participants, three tests each
[3] = set-up: species or system healthy Japanese adult males; conditions: in vivo

Substance: insulin lispro
- half‐life [1]: 53 min
- time to the maximum insulin concentration (Tmax) [1]: approximately 37 min
- participants who developed severe hypoglycemia (<50 mg/dL) [2]: None
- Bioequivalence of AUC0–∞ [3]: bioequivalent
- Bioequivalence of Cmax [3]: bioequivalent
- Bioequivalence of Tmax [3]: bioequivalent
